Measured values from PMC4509860.
Blank lines part the entries; values can stand above or below the substance they belong to.

Assays:
Assay in all cases: fluorescence polarisation
[1] = biological target: FITC-labeled StmA leader peptide (Streptomonospora alba)
[2] = biological target: FITC-labeled CurA leader (Corynebacterium urealyticum DSM 7109)
[3] = biological target: FITC-labeled HcaA leader peptide (Bacillus sp. Al Hakam)
[4] = biological target: FITC-labeled BalhA1 leader peptide (Bacillus sp. Al Hakam)

- Kd [1]: 410 nM
Substance: StmE N22A (natural protein)

- Kd [1]: 28 nM
Substance: StmE Y28A (natural protein)

Substance: CurC D18A (natural protein)
- Kd [2]: 3300 nM

Substance: CurC R68A (natural protein)
- Kd [2]: 79000 nM

Substance: HcaF I80A (natural protein)
- Kd [3]: 500 nM

- Kd [1]: 35 nM
Substance: StmE wild-type (natural protein)

- Kd [4]: 10000 nM
Substance: BalhC wild-type (natural protein)

Substance: BalhC D32A (natural protein)
- Kd [4]: 21000 nM

- Kd [1]: 2600 nM
Substance: StmE D69A (natural protein)

Substance: BalhC H38A (natural protein)
- Kd [4]: 21000 nM

- Kd [1]: 38 nM
Substance: StmE D68A (natural protein)

Substance: CurC I75A (natural protein)
- Kd [2]: 66000 nM

Substance: BalhC K20A (natural protein)
- Kd [4]: 52000 nM

Substance: CurC E25A (natural protein)
- Kd [2]: 4300 nM

- Kd [1]: 160 nM
Substance: StmE V12A (natural protein)

- Kd [1]: 75 nM
Substance: StmE Q76A (natural protein)

Substance: HcaF D38A (natural protein)
- Kd [3]: 77 nM

Substance: CurC E36A (natural protein)
- Kd [2]: 3100 nM

Substance: BalhC D23A (natural protein)
- Kd [4]: 50000 nM

- Kd [1]: 35 nM
Substance: StmE D75A (natural protein)

Substance: HcaF N72A (natural protein)
- Kd [3]: 79 nM

Substance: HcaF E79A (natural protein)
- Kd [3]: 75 nM

Substance: BalhC E66A (natural protein)
- Kd [4]: 60000 nM

Substance: CurC Q21A (natural protein)
- Kd [2]: 8000 nM

Substance: CurC Y31A (natural protein)
- Kd [2]: > 150000 nM

Substance: HcaF R73A (natural protein)
- Kd [3]: > 10000 nM

Substance: HcaF E76A (natural protein)
- Kd [3]: 250 nM
